# Measured values published in patent publication US20180258163A1 (Chugai, published 2018).
# T1: soluble human FcγRIIb (human, UniProt P31994 43-217, limits assumed)
# T1 construct: soluble His-tagged form; also called hFcγRIIb
# T1 sequence (looked up): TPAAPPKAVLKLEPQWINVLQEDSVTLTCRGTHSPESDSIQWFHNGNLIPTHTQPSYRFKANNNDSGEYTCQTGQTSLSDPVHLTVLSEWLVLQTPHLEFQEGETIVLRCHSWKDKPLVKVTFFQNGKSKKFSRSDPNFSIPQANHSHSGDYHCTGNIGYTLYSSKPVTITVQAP
# B1: Ab1H-P1398m/Ab1L (antibody, human IgG1, kappa, name in EU numbering)
# heavy: not shown
# light: DIQMTQSPSSVSASVGDRVTITCQASESIYSGLAWYQQKPGQPPKLLIYDHSTLASGVPSRFSGSGSGTEYALTISSLQPEDFATYYCQHADYAHHSDNVFGGGTKVEIKRTVAAPSVFIFPPSDEQLKSGTASVVCLLNNFYPREAKVQWKVDNALQSGNSQESVTEQDSKDSTYSLSSTLTLSKADYEKHKVYACEVTHQGLSSPVTKSFNRGEC
# notes: copies: 2 + 2
# B2: Ab1H-P1468m/Ab1L (antibody, human IgG1, kappa, name in EU numbering)
# heavy: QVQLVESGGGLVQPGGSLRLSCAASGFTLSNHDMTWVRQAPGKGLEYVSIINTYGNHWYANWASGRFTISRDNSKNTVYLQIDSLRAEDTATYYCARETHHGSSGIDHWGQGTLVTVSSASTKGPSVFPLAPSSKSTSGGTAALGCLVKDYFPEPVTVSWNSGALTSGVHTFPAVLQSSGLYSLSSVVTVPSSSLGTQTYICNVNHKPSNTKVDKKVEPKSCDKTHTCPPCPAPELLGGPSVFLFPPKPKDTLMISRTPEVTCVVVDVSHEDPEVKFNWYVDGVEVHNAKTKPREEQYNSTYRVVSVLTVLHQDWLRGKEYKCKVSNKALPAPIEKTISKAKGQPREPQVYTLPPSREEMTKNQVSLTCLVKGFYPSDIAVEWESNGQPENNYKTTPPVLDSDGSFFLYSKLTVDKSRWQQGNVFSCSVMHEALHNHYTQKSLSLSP
# light: DIQMTQSPSSVSASVGDRVTITCQASESIYSGLAWYQQKPGQPPKLLIYDHSTLASGVPSRFSGSGSGTEYALTISSLQPEDFATYYCQHADYAHHSDNVFGGGTKVEIKRTVAAPSVFIFPPSDEQLKSGTASVVCLLNNFYPREAKVQWKVDNALQSGNSQESVTEQDSKDSTYSLSSTLTLSKADYEKHKVYACEVTHQGLSSPVTKSFNRGEC
# notes: copies: 2 + 2
# B3: Ab1H-P1394m/Ab1L (antibody, human IgG1, kappa)
# heavy: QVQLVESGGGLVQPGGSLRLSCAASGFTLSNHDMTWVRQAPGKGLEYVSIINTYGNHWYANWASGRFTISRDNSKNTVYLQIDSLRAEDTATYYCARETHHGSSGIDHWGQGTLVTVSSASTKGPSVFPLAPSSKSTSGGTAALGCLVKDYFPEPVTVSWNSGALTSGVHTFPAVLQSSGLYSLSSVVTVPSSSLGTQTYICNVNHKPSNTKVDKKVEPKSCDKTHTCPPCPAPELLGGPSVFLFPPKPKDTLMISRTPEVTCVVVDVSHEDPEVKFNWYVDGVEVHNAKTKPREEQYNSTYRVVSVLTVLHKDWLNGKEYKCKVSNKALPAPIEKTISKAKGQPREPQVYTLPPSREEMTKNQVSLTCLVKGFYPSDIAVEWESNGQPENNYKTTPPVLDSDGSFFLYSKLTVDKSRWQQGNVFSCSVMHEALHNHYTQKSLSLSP
# light: DIQMTQSPSSVSASVGDRVTITCQASESIYSGLAWYQQKPGQPPKLLIYDHSTLASGVPSRFSGSGSGTEYALTISSLQPEDFATYYCQHADYAHHSDNVFGGGTKVEIKRTVAAPSVFIFPPSDEQLKSGTASVVCLLNNFYPREAKVQWKVDNALQSGNSQESVTEQDSKDSTYSLSSTLTLSKADYEKHKVYACEVTHQGLSSPVTKSFNRGEC
# notes: heavy chain = Ab1H with Q311K (EU); copies: 2 + 2
# B4: Ab1H-P1466m/Ab1L (antibody, human IgG1, kappa, name in EU numbering)
# heavy: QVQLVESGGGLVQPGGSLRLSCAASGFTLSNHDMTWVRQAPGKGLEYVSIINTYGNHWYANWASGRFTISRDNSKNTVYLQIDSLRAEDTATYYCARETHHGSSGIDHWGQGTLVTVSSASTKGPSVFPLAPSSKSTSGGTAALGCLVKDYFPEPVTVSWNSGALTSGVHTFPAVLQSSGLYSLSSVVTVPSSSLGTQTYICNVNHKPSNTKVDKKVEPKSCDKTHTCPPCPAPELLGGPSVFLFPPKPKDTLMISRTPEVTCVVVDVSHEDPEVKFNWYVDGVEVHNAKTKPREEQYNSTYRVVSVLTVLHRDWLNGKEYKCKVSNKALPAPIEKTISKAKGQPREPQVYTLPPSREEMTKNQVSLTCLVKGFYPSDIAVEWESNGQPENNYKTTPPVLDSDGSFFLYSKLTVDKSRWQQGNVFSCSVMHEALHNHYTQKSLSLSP
# light: DIQMTQSPSSVSASVGDRVTITCQASESIYSGLAWYQQKPGQPPKLLIYDHSTLASGVPSRFSGSGSGTEYALTISSLQPEDFATYYCQHADYAHHSDNVFGGGTKVEIKRTVAAPSVFIFPPSDEQLKSGTASVVCLLNNFYPREAKVQWKVDNALQSGNSQESVTEQDSKDSTYSLSSTLTLSKADYEKHKVYACEVTHQGLSSPVTKSFNRGEC
# notes: copies: 2 + 2
# B5: Ab1H018/Ab1L (antibody, human IgG1, kappa, name in Kabat numbering)
# heavy: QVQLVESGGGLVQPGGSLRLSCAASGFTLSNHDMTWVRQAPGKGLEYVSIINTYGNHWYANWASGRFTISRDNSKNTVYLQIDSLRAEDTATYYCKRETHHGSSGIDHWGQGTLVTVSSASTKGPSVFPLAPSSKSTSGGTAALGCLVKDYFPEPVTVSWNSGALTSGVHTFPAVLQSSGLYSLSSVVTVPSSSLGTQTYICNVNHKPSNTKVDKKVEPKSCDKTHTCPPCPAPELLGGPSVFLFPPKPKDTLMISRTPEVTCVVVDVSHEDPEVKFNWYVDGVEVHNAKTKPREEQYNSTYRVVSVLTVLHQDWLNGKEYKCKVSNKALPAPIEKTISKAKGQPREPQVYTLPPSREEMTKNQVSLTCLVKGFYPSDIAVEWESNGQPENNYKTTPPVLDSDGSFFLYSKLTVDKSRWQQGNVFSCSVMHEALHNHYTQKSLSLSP
# light: DIQMTQSPSSVSASVGDRVTITCQASESIYSGLAWYQQKPGQPPKLLIYDHSTLASGVPSRFSGSGSGTEYALTISSLQPEDFATYYCQHADYAHHSDNVFGGGTKVEIKRTVAAPSVFIFPPSDEQLKSGTASVVCLLNNFYPREAKVQWKVDNALQSGNSQESVTEQDSKDSTYSLSSTLTLSKADYEKHKVYACEVTHQGLSSPVTKSFNRGEC
# notes: copies: 2 + 2
# B6: Ab1H035/Ab1L (antibody, human IgG1, kappa, name in Kabat numbering)
# heavy: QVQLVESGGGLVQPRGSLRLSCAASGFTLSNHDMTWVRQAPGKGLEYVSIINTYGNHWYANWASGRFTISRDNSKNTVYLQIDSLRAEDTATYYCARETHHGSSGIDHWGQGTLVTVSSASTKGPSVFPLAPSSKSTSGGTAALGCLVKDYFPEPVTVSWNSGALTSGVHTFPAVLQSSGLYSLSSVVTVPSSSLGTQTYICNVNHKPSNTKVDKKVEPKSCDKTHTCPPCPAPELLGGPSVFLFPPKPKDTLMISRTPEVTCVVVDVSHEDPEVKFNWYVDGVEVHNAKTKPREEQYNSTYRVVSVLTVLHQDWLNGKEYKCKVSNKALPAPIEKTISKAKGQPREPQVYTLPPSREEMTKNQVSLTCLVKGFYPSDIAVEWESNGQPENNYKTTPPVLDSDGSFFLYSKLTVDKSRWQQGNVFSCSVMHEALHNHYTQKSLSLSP
# light: DIQMTQSPSSVSASVGDRVTITCQASESIYSGLAWYQQKPGQPPKLLIYDHSTLASGVPSRFSGSGSGTEYALTISSLQPEDFATYYCQHADYAHHSDNVFGGGTKVEIKRTVAAPSVFIFPPSDEQLKSGTASVVCLLNNFYPREAKVQWKVDNALQSGNSQESVTEQDSKDSTYSLSSTLTLSKADYEKHKVYACEVTHQGLSSPVTKSFNRGEC
# notes: copies: 2 + 2
# B7: Ab1H027/Ab1L (antibody, human IgG1, kappa, name in Kabat numbering)
# heavy: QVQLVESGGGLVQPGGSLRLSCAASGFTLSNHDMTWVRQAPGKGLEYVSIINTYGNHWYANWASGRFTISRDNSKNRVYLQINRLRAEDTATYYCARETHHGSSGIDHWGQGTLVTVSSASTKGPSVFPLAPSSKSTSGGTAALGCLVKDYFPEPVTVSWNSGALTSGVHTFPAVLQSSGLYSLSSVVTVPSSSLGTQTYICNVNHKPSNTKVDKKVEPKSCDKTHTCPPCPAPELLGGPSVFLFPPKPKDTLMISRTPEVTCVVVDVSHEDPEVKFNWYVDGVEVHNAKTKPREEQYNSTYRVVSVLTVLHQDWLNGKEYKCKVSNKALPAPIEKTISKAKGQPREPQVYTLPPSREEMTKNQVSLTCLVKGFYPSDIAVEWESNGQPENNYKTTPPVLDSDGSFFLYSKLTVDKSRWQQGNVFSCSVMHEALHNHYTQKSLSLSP
# light: DIQMTQSPSSVSASVGDRVTITCQASESIYSGLAWYQQKPGQPPKLLIYDHSTLASGVPSRFSGSGSGTEYALTISSLQPEDFATYYCQHADYAHHSDNVFGGGTKVEIKRTVAAPSVFIFPPSDEQLKSGTASVVCLLNNFYPREAKVQWKVDNALQSGNSQESVTEQDSKDSTYSLSSTLTLSKADYEKHKVYACEVTHQGLSSPVTKSFNRGEC
# notes: copies: 2 + 2
# B8: Ab1H029/Ab1L (antibody, human IgG1, kappa, name in Kabat numbering)
# heavy: not shown
# light: DIQMTQSPSSVSASVGDRVTITCQASESIYSGLAWYQQKPGQPPKLLIYDHSTLASGVPSRFSGSGSGTEYALTISSLQPEDFATYYCQHADYAHHSDNVFGGGTKVEIKRTVAAPSVFIFPPSDEQLKSGTASVVCLLNNFYPREAKVQWKVDNALQSGNSQESVTEQDSKDSTYSLSSTLTLSKADYEKHKVYACEVTHQGLSSPVTKSFNRGEC
# notes: copies: 2 + 2
# B9: Ab1H045/Ab1L (antibody, human IgG1, kappa, name in Kabat numbering)
# heavy: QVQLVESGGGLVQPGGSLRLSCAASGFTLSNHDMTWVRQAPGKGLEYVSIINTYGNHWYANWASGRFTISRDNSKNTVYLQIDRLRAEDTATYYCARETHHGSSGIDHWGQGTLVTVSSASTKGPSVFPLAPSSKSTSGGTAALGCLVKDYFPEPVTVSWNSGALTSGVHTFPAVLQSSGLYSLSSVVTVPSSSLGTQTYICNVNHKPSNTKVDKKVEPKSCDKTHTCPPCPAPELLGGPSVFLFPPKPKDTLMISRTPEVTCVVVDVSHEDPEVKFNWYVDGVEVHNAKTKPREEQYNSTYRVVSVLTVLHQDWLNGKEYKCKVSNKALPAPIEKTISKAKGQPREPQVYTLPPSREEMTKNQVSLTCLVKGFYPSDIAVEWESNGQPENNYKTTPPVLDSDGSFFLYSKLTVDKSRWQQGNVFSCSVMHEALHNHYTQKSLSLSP
# light: DIQMTQSPSSVSASVGDRVTITCQASESIYSGLAWYQQKPGQPPKLLIYDHSTLASGVPSRFSGSGSGTEYALTISSLQPEDFATYYCQHADYAHHSDNVFGGGTKVEIKRTVAAPSVFIFPPSDEQLKSGTASVVCLLNNFYPREAKVQWKVDNALQSGNSQESVTEQDSKDSTYSLSSTLTLSKADYEKHKVYACEVTHQGLSSPVTKSFNRGEC
# notes: copies: 2 + 2
# B10: Ab1H030/Ab1L (antibody, human IgG1, kappa, name in Kabat numbering)
# heavy: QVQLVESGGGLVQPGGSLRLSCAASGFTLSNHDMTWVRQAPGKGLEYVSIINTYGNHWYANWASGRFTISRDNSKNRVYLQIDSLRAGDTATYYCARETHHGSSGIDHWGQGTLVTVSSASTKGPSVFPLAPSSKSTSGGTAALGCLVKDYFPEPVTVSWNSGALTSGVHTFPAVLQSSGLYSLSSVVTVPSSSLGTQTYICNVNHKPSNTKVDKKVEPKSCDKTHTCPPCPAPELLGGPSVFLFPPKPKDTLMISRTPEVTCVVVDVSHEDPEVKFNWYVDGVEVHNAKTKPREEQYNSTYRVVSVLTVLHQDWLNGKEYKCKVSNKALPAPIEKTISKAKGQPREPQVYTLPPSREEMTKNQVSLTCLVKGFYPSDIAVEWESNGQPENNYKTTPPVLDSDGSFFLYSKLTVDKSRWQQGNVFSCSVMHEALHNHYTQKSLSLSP
# light: DIQMTQSPSSVSASVGDRVTITCQASESIYSGLAWYQQKPGQPPKLLIYDHSTLASGVPSRFSGSGSGTEYALTISSLQPEDFATYYCQHADYAHHSDNVFGGGTKVEIKRTVAAPSVFIFPPSDEQLKSGTASVVCLLNNFYPREAKVQWKVDNALQSGNSQESVTEQDSKDSTYSLSSTLTLSKADYEKHKVYACEVTHQGLSSPVTKSFNRGEC
# notes: copies: 2 + 2
# B11: Ab1H041m/Ab1L (antibody, human IgG1, kappa, name in Kabat numbering)
# heavy: not shown
# light: DIQMTQSPSSVSASVGDRVTITCQASESIYSGLAWYQQKPGQPPKLLIYDHSTLASGVPSRFSGSGSGTEYALTISSLQPEDFATYYCQHADYAHHSDNVFGGGTKVEIKRTVAAPSVFIFPPSDEQLKSGTASVVCLLNNFYPREAKVQWKVDNALQSGNSQESVTEQDSKDSTYSLSSTLTLSKADYEKHKVYACEVTHQGLSSPVTKSFNRGEC
# notes: copies: 2 + 2
# B12: Ab1H034/Ab1L (antibody, human IgG1, kappa, name in Kabat numbering)
# heavy: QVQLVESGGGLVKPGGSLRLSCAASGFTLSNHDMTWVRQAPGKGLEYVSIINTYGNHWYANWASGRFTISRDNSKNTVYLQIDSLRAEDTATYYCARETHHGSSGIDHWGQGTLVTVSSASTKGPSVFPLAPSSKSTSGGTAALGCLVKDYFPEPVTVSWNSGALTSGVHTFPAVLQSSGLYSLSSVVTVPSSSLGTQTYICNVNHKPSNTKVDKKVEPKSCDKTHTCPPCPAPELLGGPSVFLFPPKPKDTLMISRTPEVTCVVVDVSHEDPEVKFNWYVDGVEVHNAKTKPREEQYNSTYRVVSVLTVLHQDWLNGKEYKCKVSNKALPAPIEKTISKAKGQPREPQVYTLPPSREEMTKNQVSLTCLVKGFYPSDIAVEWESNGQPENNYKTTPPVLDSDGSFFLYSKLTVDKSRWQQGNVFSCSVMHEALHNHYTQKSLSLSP
# light: DIQMTQSPSSVSASVGDRVTITCQASESIYSGLAWYQQKPGQPPKLLIYDHSTLASGVPSRFSGSGSGTEYALTISSLQPEDFATYYCQHADYAHHSDNVFGGGTKVEIKRTVAAPSVFIFPPSDEQLKSGTASVVCLLNNFYPREAKVQWKVDNALQSGNSQESVTEQDSKDSTYSLSSTLTLSKADYEKHKVYACEVTHQGLSSPVTKSFNRGEC
# notes: copies: 2 + 2
# B13: Ab1H039/Ab1L (antibody, human IgG1, kappa, name in Kabat numbering)
# heavy: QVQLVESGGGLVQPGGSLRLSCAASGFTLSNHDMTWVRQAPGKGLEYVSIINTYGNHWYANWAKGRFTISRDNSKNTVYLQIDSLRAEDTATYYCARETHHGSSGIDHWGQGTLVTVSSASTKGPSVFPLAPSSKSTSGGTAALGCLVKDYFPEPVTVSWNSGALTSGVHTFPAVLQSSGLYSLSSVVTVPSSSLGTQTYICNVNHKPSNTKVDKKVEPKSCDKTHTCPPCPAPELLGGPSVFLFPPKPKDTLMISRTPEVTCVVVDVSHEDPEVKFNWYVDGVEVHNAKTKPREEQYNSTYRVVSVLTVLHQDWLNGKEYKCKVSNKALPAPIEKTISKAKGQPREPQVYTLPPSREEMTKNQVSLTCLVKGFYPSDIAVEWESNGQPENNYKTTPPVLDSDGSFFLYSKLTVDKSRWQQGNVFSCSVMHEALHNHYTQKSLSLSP
# light: DIQMTQSPSSVSASVGDRVTITCQASESIYSGLAWYQQKPGQPPKLLIYDHSTLASGVPSRFSGSGSGTEYALTISSLQPEDFATYYCQHADYAHHSDNVFGGGTKVEIKRTVAAPSVFIFPPSDEQLKSGTASVVCLLNNFYPREAKVQWKVDNALQSGNSQESVTEQDSKDSTYSLSSTLTLSKADYEKHKVYACEVTHQGLSSPVTKSFNRGEC
# notes: copies: 2 + 2
# B14: Ab1H031m/Ab1L (antibody, human IgG1, kappa, name in Kabat numbering)
# heavy: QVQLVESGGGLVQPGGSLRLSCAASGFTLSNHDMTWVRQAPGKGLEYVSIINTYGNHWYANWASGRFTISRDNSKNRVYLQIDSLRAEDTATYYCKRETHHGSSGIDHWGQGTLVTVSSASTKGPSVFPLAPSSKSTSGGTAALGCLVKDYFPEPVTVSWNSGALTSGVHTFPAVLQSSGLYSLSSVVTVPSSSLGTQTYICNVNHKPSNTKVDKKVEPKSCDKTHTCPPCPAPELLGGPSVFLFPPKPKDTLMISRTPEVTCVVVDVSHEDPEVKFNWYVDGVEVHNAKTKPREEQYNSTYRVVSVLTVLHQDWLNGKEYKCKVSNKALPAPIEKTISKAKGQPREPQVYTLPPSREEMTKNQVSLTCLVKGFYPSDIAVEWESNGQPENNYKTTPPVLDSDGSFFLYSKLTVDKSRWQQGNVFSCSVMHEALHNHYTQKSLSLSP
# light: DIQMTQSPSSVSASVGDRVTITCQASESIYSGLAWYQQKPGQPPKLLIYDHSTLASGVPSRFSGSGSGTEYALTISSLQPEDFATYYCQHADYAHHSDNVFGGGTKVEIKRTVAAPSVFIFPPSDEQLKSGTASVVCLLNNFYPREAKVQWKVDNALQSGNSQESVTEQDSKDSTYSLSSTLTLSKADYEKHKVYACEVTHQGLSSPVTKSFNRGEC
# notes: copies: 2 + 2
# B15: Ab1H028/Ab1L (antibody, human IgG1, kappa, name in Kabat numbering)
# heavy: not shown
# light: DIQMTQSPSSVSASVGDRVTITCQASESIYSGLAWYQQKPGQPPKLLIYDHSTLASGVPSRFSGSGSGTEYALTISSLQPEDFATYYCQHADYAHHSDNVFGGGTKVEIKRTVAAPSVFIFPPSDEQLKSGTASVVCLLNNFYPREAKVQWKVDNALQSGNSQESVTEQDSKDSTYSLSSTLTLSKADYEKHKVYACEVTHQGLSSPVTKSFNRGEC
# notes: copies: 2 + 2
# Target: T1, soluble human FcγRIIb
# Test: SPR, Ab-IgE complex over captured hFcγRIIb, pH 7.4, 25C
# Method: (§1) Regarding the produced Fc region variant-containing antibodies, binding assays between soluble human FcγRIIb and antigen-antibody complexes were performed using BIACORE T200 (GE Healthcare). Soluble human FcγRIIb (NCBI accession NM_004001.3) was produced in the form of a His-tagged molecule by a method known in the art. An appropriate amount of an anti-His antibody was fixed onto Sensor chip CM5 (GE Healthcare) by the amine coupling method using a His capture kit (GE Healthcare) to capture human FcγRIIb. Next, an antibody-antigen complex and a running buffer (as a reference solution) were injected, and interaction was allowed to take place with the human FcγRIIb captured onto the sensor chip. 20 mM N-(2-Acetamido)-2-aminoethanesulfonic acid, 150 mM NaCl, 1.2 mM CaCl₂, and 0.05% (w/v) Tween 20 at pH 7.4 was used as the running buffer, and the respective buffer was also used to dilute the soluble human FcγRIIb. To regenerate the sensor chip, 10 mM glycine-HCl at pH 1.5 was used. All measurements were carried out at 25° C. Analyses were performed based on binding (RU) calculated from sensorgrams obtained by the measurements, and relative values when the binding amount of Ab1H/Ab1L (original Ab1) was defined as 1.00 are shown. To calculate the parameters, the BIACORE T100 Evaluation Software (GE Healthcare) was used.
row,Binder,"BIACORE fold (relative binding, original Ab1=1.00) [fold]"
1,B1,1.23
2,B2,1.13
3,B3,1.18
4,B4,1.22

# Target: T1, soluble human FcγRIIb
# Test: as above
# Remark: another data set of the same source
# Method: as §1
row,Binder,"BIACORE fold (relative binding, original Ab1=1.00) [fold]"
1,B5,-0.01
2,B6,1.28
3,B7,1.21
4,B8,1.33
5,B9,0.76
6,B10,1.27
7,B11,1.52
8,B12,1.21
9,B13,1.57
10,B14,0.06
11,B15,1.37
